Drawing on article PMC5300068, this text covers Kd and stoichiometry N for five substances.

Holding throughout (assay): AUC; sedimentation velocity, 50,000 rpm, absorbance optics, c(s) analysis; physiological ionic strength, buffers with Ca2+ or EDTA; 0.8-2.2 uM for full-length MASPs; dimer to monomers
Test [1] deals with activated full-length rat MASP-1 (rat).
The target in test [2] is activated full-length rat MASP-2 (rat).
Test [3] addresses full-length rat MASP-1 zymogen (rat) (UniProt Q8CHN8).
The target in test [4] is full-length rat MASP-2 zymogen (rat) (UniProt Q9JJS8).
For test [5], the target named is rat MASP-1 CUB1-EGF-CUB2 (MASP-1 3D) (rat) (UniProt Q8CHN8).

A value given as a limit tells only on which side of the number the result lay.

Usually Kd stands for the equilibrium constant for the complex coming apart. Higher therefore signals lower affinity. Usually stoichiometry N stands for the number of molecules, sites or subunits per partner or assembly.

Consider “activated full-length rat MASP-1 (enzyme)”, for which, in test [1], the Kd was below 0.01 µM and the stoichiometry N came to 2. For the substance “activated full-length rat MASP-2 (enzyme)”, in test [2], the Kd is below 0.01 µM and the stoichiometry N worked out at 2. For “full-length rat MASP-1 zymogen (from UniProt Q8CHN8 25-704) (enzyme)”, in test [3], the Kd is below 0.01 µM and the stoichiometry N amounted to 2. With “full-length rat MASP-2 zymogen (from UniProt Q9JJS8 20-685) (enzyme)”, in test [4], the Kd was below 0.01 µM and the stoichiometry N was 2. Consider “rat MASP-1 CUB1-EGF-CUB2 (MASP-1 3D) (from UniProt Q8CHN8 61-301) (domain or fragment)”, for which the stoichiometry N in test [5] was determined as 2.
